Measured values reported in the supplement of paper PMC10126150.
± gives the standard deviation of the averaged measurements.

System: ATP
Assay: switch fluorescence ratio, 500 uM ATP over buffer (Cy3 cluster intensity, sum of 5 cycles each) (fold (ratio)); higher = stronger signal-on switching upon ATP binding; sequences stand for … in TCGTCGGCAGCGTCAGATGTGTATAAGAGACAGTTTTTTTTTTTTTTTTTTTTTTTTT…TC
Details: aptamer strand: ATP DNA aptamer (quencher-CACCTGGGGGAGTATTGCGGAGGAAGG + anchor), 100 nM annealed; ATP concentration: 500 uM
Method in brief: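 Between each of five buffer/ATP cycles, the flow-cell was stripped with NaOH and re-annealed. Each cycle imaged Cy3-labelled switching-strand clusters, annealed to 100 nM quencher-labelled ATP aptamer on a modified Illumina MiSeq flow-cell, first in selection buffer and then after 15 min with 500 uM ATP at 22 °C. The fluorescence ratio is summed target-cycle over summed buffer-cycle Cy3 intensity per cluster, averaged per switch-domain sequence, with clusters outside 100-1000 RFU excluded.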
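Also: ATP exposure 15 min at 22 °C before imaging.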

Sequence | switch fluorescence ratio
AAAAATCTGC | 1.03 ± 0.12
TCAGGGGAAC | 1.06 ± 0.07
GATTAAGGGC | 1.0033 ± 6.6e-05
TTTGGTATGA | 0.9736 ± 0.0021
TACATGCATG | 1.001 ± 0.0031
ATTCTATATC | 0.97 ± 0.021
ATTTGAGGTG | 1.03 ± 0.038
GAGCGGGTTG | 0.9835 ± 0.0056
TCAATCGACA | 1 ± 0.041
CGAATTTACC | 1.19 ± 0.15
CCGGTGCCAA | 3.85 ± 0.21
ATCGATTGAG | 0.971 ± 0.015
CTGGCGAGTA | 1.01 ± 0.016
CAACTGCGTG | 0.989 ± 0.013
AAAACGAATT | 1.01 ± 0.044
TCCCAGCTGT | 1.12 ± 0.033
TTAGCTGGCA | 1 ± 0.027
CCCTTGATGC | 1.151 ± 0.008
AGATTTATGT | 1.01 ± 0.047
TGGATTATGT | 1.005 ± 0.0045
GCTGAATAAG | 0.9815 ± 0.0088
AGTGGTGTCT | 1.01 ± 0.033
ATGCTGCCTG | 1.01 ± 0.019
AGTATTAGAA | 0.978 ± 0.012
AATGCAATTG | 1.03 ± 0.016
AGATATGTTT | 0.986 ± 0.025

Sequence | switch fluorescence ratio
GGGGGGCATG | 0.992 ± 0.035
AAGGGACGGG | 1.01 ± 0.027
TAGGGGACGT | 0.992 ± 0.063
CATGTTTTGT | 1.02 ± 0.017
CGCAGCGATG | 2.66 ± 0.11
TCCTGGGTAT | 1.69 ± 0.98
TTTGTGTGTT | 1.02 ± 0.024
GCGCGGGGCC | 0.999 ± 0.032
TTTTAGAATT | 0.996 ± 0.013
TATTGTTGAC | 1.037 ± 0.01
ATTGGACATC | 1.11 ± 0.11
TATGATCTAG | 0.995 ± 0.014
GGTAGTATTT | 0.996 ± 0.028
TGTGAATGGG | 1.02 ± 0.017
ATGAATATTA | 0.99254 ± 0.00014
CAAGGTCAGC | 0.9798 ± 0.0071
TTTCGGTGTG | 0.977 ± 0.0098
CTGAGGGAAA | 0.988 ± 0.029
TGCTACTGC | 1.03 ± 0.015
TCAGTAACGT | 1.02 ± 0.013
GAGGGGGGAC | 1.02 ± 0.032
TTCCTAAATT | 0.9979 ± 0.0034
TCGGACTAGG | 1 ± 0.031
TGGTTGTTTA | 0.993 ± 0.0045
TTGACCTTTG | 1.01 ± 0.011
AGGAGCTGCG | 0.998 ± 0.038

Sequence | switch fluorescence ratio
TTTGGCTGAA | 1.01 ± 0.019
ATGTGGGCTA | 0.992 ± 0.03
AACCCACATC | 1.303 ± 0.002
TTCTTGCTGG | 0.997 ± 0.019
TAGATGGTTT | 0.97 ± 0.036
GGATTGGGCA | 1.01 ± 0.021
GAGTTTGGGT | 0.985 ± 0.032
TTTGGGGTAG | 0.977 ± 0.015
ATCGTATGTA | 0.9708 ± 0.0055
TGGTGGTATG | 1.01 ± 0.071
CGGGGAGGGC | 1.04 ± 0.071
TAAGAGGAGT | 0.985 ± 0.013
TGCGAGGATG | 1 ± 0.0028
TAGGGACGTT | 0.988 ± 0.013
TATGAGGCCA | 1.04 ± 0.023
CCAGTAATGT | 1.04 ± 0.041
GTGGAACATT | 1.02 ± 0.049
CGCCCGGGGG | 1.32 ± 0.45
GGGCGGGTCT | 1.01 ± 0.046
AGAGGCTTAG | 1 ± 0.066
AACGAATTCA | 1.05 ± 0.017
AATCAGTGGA | 0.974 ± 0.038
ATGGTGGTTT | 0.998 ± 0.063
AAGGGTCGCG | 1.02 ± 0.055
TTCGCAGGGA | 1.074 ± 0.0042
GCATTTGATG | 1.0205 ± 0.00084

Sequence | switch fluorescence ratio
TTATGTAAGG | 0.971 ± 0.014
CAAGGCATTG | 0.978 ± 0.02
TGTTTTGGTG | 1.01 ± 0.027
TACAAGTTTT | 0.986 ± 0.0093
GGGTTAATAC | 1.29 ± 0.069
GGGCTGGGTA | 0.993 ± 0.018
GTAATAAGGG | 1.04 ± 0.041
AGATTTTTTT | 0.996 ± 0.031
CATAGGTCAT | 1.03 ± 0.058
TGGGGGGTTG | 1.02 ± 0.049
CGTAGAGGAA | 0.994 ± 0.03
CATGTAAGTT | 0.986 ± 0.018
GATGTAGGTA | 0.983 ± 0.038
GCGTCTATTG | 0.9987 ± 0.0051
GGGTGGTTAC | 0.99 ± 0.044
GGAAGGTGGG | 1.15 ± 0.25
ATCCCTAAAA | 1.0207 ± 0.00031
CGGTTTGCGT | 0.9748 ± 0.0029
GCGTAAAAAG | 1.03 ± 0.011
AGCGGTTGGG | 0.9966 ± 0.0071
CGGTGCACGG | 1.05 ± 0.027
GCGGCCGTTG | 0.965 ± 0.064
GGGCCTGGTA | 0.973 ± 0.03
ATAGGAGTAG | 0.993 ± 0.036
CATTGCTTGG | 1.039 ± 0.0012
GGATGGACTG | 0.937 ± 0.035

Sequence | switch fluorescence ratio
CAAATCTTGT | 1.03 ± 0.027
ATAAGGTTGG | 0.988 ± 0.029
TTTTAGTGAC | 1.022 ± 0.0053
ACAATGGATG | 0.994 ± 0.041
CTTATATATG | 0.987 ± 0.017
AACTTTCCTC | 2.49 ± 0.076
TTCTAATTTT | 0.995 ± 0.027
ACCAAGGGGT | 1.02 ± 0.054
ATGAGCGTCA | 0.9904 ± 0.0017
TTTAAACGGA | 1.05 ± 0.081
CGGTAGGTGC | 0.976 ± 0.063
TCAGGTTTTG | 0.98 ± 0.013
GGGTTAAAGG | 1 ± 0.015
TCTTGAAGG | 0.953 ± 0.023
GGGAAGTTCA | 1 ± 0.029
CGGTTGGGGG | 0.962 ± 0.033
CGATTTTGGG | 0.9844 ± 0.0047
CCTCATGACA | 1.263 ± 0.0096
TTGCCACTCT | 1.04 ± 0.064
TCTGGGTGGT | 0.977 ± 0.042
TAGGTGCGGT | 0.989 ± 0.015
TTTGATCTTG | 1.01 ± 0.013
CAGGAACTTG | 0.956 ± 0.023
AACAGGACAT | 1.06 ± 0.017
ATTACAACGA | 1.015 ± 0.0032
CAAAAGGGCC | 1.021 ± 0.0042

Sequence | switch fluorescence ratio
GTTAGTGTGC | 0.984 ± 0.013
GCCATATTTC | 0.998 ± 0.041
AAAATGTGAC | 1.039 ± 0.007
GGGAGGGAGG | 0.988 ± 0.021
TTTAAAGACC | 0.993 ± 0.022
GATGTTGTGT | 0.9802 ± 0.0091
GAGTTTTTTG | 1.03 ± 0.039
GAAGGGGTGG | 1.01 ± 0.037
GTACTCGAGC | 1 ± 0.018
AGCAGTGTCT | 1.04 ± 0.02
TATAAAAGGA | 1 ± 0.019
CCGTAATGTG | 1.5 ± 0.16
TATGTGAGGC | 0.993 ± 0.011
GCCGTAGTAA | 1.68 ± 0.011
GGGGATAACA | 1.028 ± 0.00063
CCAAGGACAC | 1.1498 ± 0.001
GCCGCCTGAT | 0.986 ± 0.021
GGTTTTACTC | 1.0379 ± 0.0006
GGGGTAGACT | 0.995 ± 0.018
TCCAGATAGG | 0.997 ± 0.048
TGTATTCGGG | 0.978 ± 0.01
TGAAAATAGG | 0.9771 ± 0.0068
TGGTGCTCAT | 0.994 ± 0.024
